What all share (test): SEC; Superdex 200 increase column, 40 mM potassium phosphate, 300 mM NaCl, pH 6.5, 1 mL/min, detection at 220 nm; drug products reconstituted in water for injection
Test [1] has as its target L-Aspase (E. coli L-asparaginase) (E. coli) (UniProt P00805).
The target of test [2] is T1, Spectrila (recombinant E. coli L-asparaginase type II) (E. coli), P00805.
T1 chain: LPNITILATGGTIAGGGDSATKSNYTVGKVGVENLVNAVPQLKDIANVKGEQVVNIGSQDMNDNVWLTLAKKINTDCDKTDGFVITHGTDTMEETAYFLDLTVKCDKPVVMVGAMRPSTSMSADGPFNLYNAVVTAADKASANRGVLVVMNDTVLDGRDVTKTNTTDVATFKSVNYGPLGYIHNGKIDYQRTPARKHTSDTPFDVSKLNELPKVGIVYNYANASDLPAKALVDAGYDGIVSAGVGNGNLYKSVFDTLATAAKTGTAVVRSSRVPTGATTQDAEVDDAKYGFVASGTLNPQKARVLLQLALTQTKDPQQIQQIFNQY
To be noted: remark: other sources report otherwise.

The target in test [3] is T2, Celginase (E. coli L-asparaginase) (E. coli), P00805.
T2 chain: T1 chain
As to conditions: remark: other sources report otherwise.

In test [4] the target is T3, Bionase (E. coli L-asparaginase) (E. coli), P00805.
T3 chain: T1 chain
As to conditions: remark: other sources report otherwise.

Results on four molecules are retold here after article PMC12169553.

Regarding “L-Aspase (E. coli L-asparaginase) (from UniProt P00805 23-348) (enzyme)”, the stoichiometry N – broadly, the number of molecules, sites or subunits per partner or assembly – in test [1] turned out to be 4.

B1: Spectrila (recombinant E. coli L-asparaginase type II), P00805 23-348 (enzyme)
chain: T1 chain
Consider B1, for which the stoichiometry N in test [2] is 4.

B2: Celginase (E. coli L-asparaginase), P00805 23-348 (enzyme)
chain: T1 chain
Take B2: the stoichiometry N in test [3] was 4.

B3: Bionase (E. coli L-asparaginase), P00805 23-348 (enzyme)
chain: T1 chain
In test [4], B3 had a stoichiometry N of 4.
